Tests used:
Assay in all cases: filter binding
Conditions in all cases: Filter binding: 20 mM HEPES-KOH pH 7.5, 1 mM MgCl2, 10 µM TCEP, 5 mM β-mercaptoethanol, 10 µM ZnCl2, 50-500 mM NaCl, 0.2 nM RNA, 25 min, room temperature. …
[1] = test system: HIV-2 MA (HIV-2 isolate ROD)
[2] = test system: HIV-2 GagΔp6 (HIV-2 isolate ROD)
[3] = test system: HIV-2 NC (NCp8) (HIV-2 isolate ROD)

Substance	Kd [1] [nM]	Kd [2] [nM]	Kd [3] [nM]
HIV-2 PBS RNA	2070	314	2040
HIV-2 TARpA RNA	2380	965	1430
HIV-2 Ψ RNA	1510	125	979

Reference: PMC4794849
